The text below walks through data of patent US20170189507A1, “NOVEL PEPTIDES AND COMBINATION OF PEPTIDES FOR USE IN IMMUNOTHERAPY AGAINST VARIOUS CANCERS” (immatics biotechnologies GmbH, priority 2015, published 2017).

One experiment addresses HLA-A*02 (Homo sapiens, UniProt P04439, D140Y/D185E/D98H/E176V/E277Q/G131W/G231S/I119V/I121R/I166T/I218V/N151K/N90K/P208A/P217A/Q86G/Q94H/R138H/R169H). The experiment can be described thus: MHC binding assay (UV-ligand exchange, beta2m ELISA), HLA-A*02. As to conditions: MHC class I binding score, peptide exchange yield. From the text: Candidate peptides for T cell based therapies according to the present invention were further tested for their MHC binding capacity (affinity). The individual peptide-MHC complexes were produced by UV-ligand exchange, where a UV-sensitive peptide is cleaved upon UV-irradiation, and exchanged with the peptide of interest as analyzed. Only peptide candidates that can effectively bind and stabilize the peptide-receptive MHC molecules prevent dissociation of the MHC complexes. To determine the yield of the exchange reaction, an ELISA was performed based on the detection of the light chain ([…] of stabilized MHC complexes. The assay was performed as generally described in Rodenko et al. (Rodenko et al., 2006).
96 well MAXISorp plates (NUNC) were coated over night with 2 ug/ml streptavidin in PBS at room temperature, washed 4× and blocked for 1 h at 37° C. in 2% BSA containing blocking buffer. Refolded HLA-A*02:01/MLA-001 monomers served as standards, covering the range of 15-500 ng/ml. Peptide-MHC monomers of the UV-exchange reaction were diluted 100 fold in blocking buffer. Samples were incubated for 1 h at 37° C., washed four times, incubated with 2 ug/ml HRP conjugated anti-β2m for 1 h at 37° C., washed again and detected with TMB solution that is stopped with […]. Absorption was measured at 450 nm. Candidate peptides that show a high exchange yield (preferably higher than 50%, most preferred higher than 75%) are generally preferred for a generation and production of antibodies or fragments thereof, and/or T cell receptors or fragments thereof, as they show sufficient avidity to the MHC molecules and prevent dissociation of the MHC complexes.
(In general: In an ELISA, binding on a coated surface is turned into a signal by an enzyme label.)

A further experiment relates to CD8+ T cells. Kind of experiment: In vitro immunogenicity: T-cell priming with aAPCs loaded with peptide/MHC complexes and anti-CD28 antibody, pMHC multimer readout. As to conditions: in vitro immunogenicity of HLA class I peptides; peptide-specific multimer+ wells after aAPC priming of CD8+ T cells. Type of experiment: cell-based, human. Here is the method: In an aspect, the peptides are pre-screened for immunogenicity before being included in the warehouse. By way of example, and not limitation, the immunogenicity of the peptides included in the warehouse is determined by a method comprising in vitro T-cell priming through repeated stimulations of CD8+ T cells from healthy donors with artificial antigen presenting cells loaded with peptide/MHC complexes and anti-CD28 antibody.
In order to obtain information regarding the immunogenicity of the TUMAPs of the present invention, the inventors performed investigations using an in vitro T-cell priming assay based on repeated stimulations of CD8+ T cells with artificial antigen presenting cells (aAPCs) loaded with peptide/MHC complexes and anti-CD28 antibody.
In order to perform in vitro stimulations by artificial antigen presenting cells loaded with peptide-MHC complex (pMHC) and anti-CD28 antibody, the inventors first isolated CD8+ T cells from fresh HLA-A*02 leukapheresis products via positive selection using CD8 microbeads (Miltenyi Biotec, Bergisch-Gladbach, Germany) of healthy donors obtained from the University clinics Mannheim, Germany, after informed consent.
PBMCs and isolated CD8+ lymphocytes were incubated in T-cell medium (TCM) until use consisting of RPMI-Glutamax (Invitrogen, Karlsruhe, Germany) supplemented with 10% heat inactivated human AB serum (PAN-Biotech, Aidenbach, Germany), 100 U/ml Penicillin/100 μg/ml Streptomycin (Cambrex, Cologne, Germany), 1 mM sodium pyruvate (CC Pro, Oberdorla, Germany), 20 μg/ml Gentamycin (Cambrex). 2.5 ng/ml IL7 (PromoCell, Heidelberg, Germany) and 10 U/ml IL-2 (Novartis Pharma, Nurnberg, Germany) were also added to the TCM at this step.
Generation of pMHC/anti-CD28 coated beads, T-cell stimulations and readout was performed in a highly defined in vitro system using four different pMHC molecules per stimulation condition and 8 different pMHC molecules per readout condition.
The purified co-stimulatory mouse IgG2a anti human CD28 Ab 9.3 (Jung et al., 1987) was chemically biotinylated using Sulfo-N-hydroxysuccinimidobiotin as recommended by the manufacturer (Perbio, Bonn, Germany). Beads used were 5.6 μm diameter streptavidin coated polystyrene particles (Bangs Laboratories, Illinois, USA).
pMHC used for positive and negative control stimulations were A*0201/MLA-001 (peptide […] (SEQ ID NO. 303) from modified Melan-A/MART-1) and A*0201/DDX5-001 ([…] from DDX5, SEQ ID NO. 304), respectively.
800.000 beads/200 μl were coated in 96-well plates in the presence of 4×12.5 ng different biotin-pMHC, washed and 600 ng biotin anti-CD28 were added subsequently in a volume of 200 μl. Stimulations were initiated in 96-well plates by co-incubating […] CD8+ T cells with 2×10^5 washed coated beads in 200 μl TCM supplemented with 5 ng/ml IL-12 (PromoCell) for 3 days at 37° C. Half of the medium was then exchanged by fresh TCM supplemented with 80 U/ml IL-2 and incubating was continued for 4 days at 37° C. This stimulation cycle was performed for a total of three times. For the pMHC multimer readout using 8 different pMHC molecules per condition, a twodimensional combinatorial coding approach was used as previously described (Andersen et al., 2012) with minor modifications encompassing coupling to 5 different fluorochromes. Finally, multimeric analyses were performed by staining the cells with Live/dead near IR dye (Invitrogen, Karlsruhe, Germany), CD8-FITC antibody clone SK1 (BD, Heidelberg, Germany) and fluorescent pMHC multimers. For analysis, a BD LSRII SORP cytometer equipped with appropriate lasers and filters was used. Peptide specific cells were calculated as percentage of total CD8+ cells. Evaluation of multimeric analysis was done using the FlowJo software (Tree Star, Oregon, USA). In vitro priming of specific multimer+ CD8+ lymphocytes was detected by comparing to negative control stimulations.

For the substance “4 (KLMPGTYTL; listed as Homo sapiens) [compound 4]”, in the experiment with HLA-A*02, the Peptide exchange entry was “++++ (>=75% = ++++)”. The “Wells positive [%]” value with CD8+ T cells is given as “+ (<20% = +)”.
“12 (GLLPLLHRA; listed as Homo sapiens) [compound 12]”: in the experiment with HLA-A*02, the Peptide exchange entry is listed as “++++ (>=75% = ++++)”. In addition, in the experiment on CD8+ T cells, the “Wells positive [%]” value is “++++ (>=70% = ++++)”.
With “16 (YTLDIPVLFGV; listed as Homo sapiens) [compound 16]”, the Peptide exchange entry with HLA-A*02 is listed as “++++ (>=75% = ++++)”.
Same read-out and setting: as for “34 (FLLATEVVTV; listed as Homo sapiens) [compound 34]”, the entry is “++++ (>=75% = ++++)”; as for “42 (LLDSVSRL; listed as Homo sapiens) [compound 42]”, “+ (<20% = +)”; as for “51 (LLFSRLCGA; listed as Homo sapiens) [compound 51]”, “++++ (>=75% = ++++)”.
Still for that read-out and setting: as for “82 (FIFDEAEKL; listed as Homo sapiens) [compound 82]”, the entry is “+ (<20% = +)”; as for “84 (ALCPRIHEV; listed as Homo sapiens) [compound 84]”, “++++ (>=75% = ++++)”; as for “92 (GLLFSLRSV; listed as Homo sapiens) [compound 92]”, “++++ (>=75% = ++++)”.
On the same count and under the same terms, the same measure for “95 (GLLGSLFFL; listed as Homo sapiens) [compound 95]”: “++++ (>=75% = ++++)”; for “100 (ALLGMIIVGV; listed as Homo sapiens) [compound 100]”: “+ (<20% = +)”.
For the substance “112 (SLGKFTFDV; listed as Homo sapiens) [compound 112]”, in the experiment with HLA-A*02, the Peptide exchange entry was “++++ (>=75% = ++++)”.
Still for that read-out and setting: the same measure for “120 (VTPVTVSAV; listed as Homo sapiens) [compound 120]”: “+ (<20% = +)”; for “125 (SLADYEHFV; listed as Homo sapiens) [compound 125]”: “++++ (>=75% = ++++)”; for “126 (QMFQYFITV; listed as Homo sapiens) [compound 126]”: “++++ (>=75% = ++++)”.
On the same count and under the same terms, the same measure for “129 (RLQDILWFL; listed as Homo sapiens) [compound 129]”: “++++ (>=75% = ++++)”; for “133 (ALLPRLHQL; listed as Homo sapiens) [compound 133]”: “++++ (>=75% = ++++)”; for “147 (YLMDDTVEI; listed as Homo sapiens) [compound 147]”: “++++ (>=75% = ++++)”.
Same read-out and setting: the same measure for “153 (FISERVEVV; listed as Homo sapiens) [compound 153]”: “++++ (>=75% = ++++)”; for “229 (AILAHLNTV; listed as Homo sapiens) [compound 229]”: “++++ (>=75% = ++++)”.
Regarding “245 (SLLDLPLSL; listed as Homo sapiens) [compound 245]”, the Peptide exchange result with HLA-A*02 is given as “++++ (>=75% = ++++)”.
In the case of “248 (YLDRFLAGV; listed as Homo sapiens) [compound 248]”, in the experiment with HLA-A*02, the Peptide exchange entry is “++++ (>=75% = ++++)”.
“249 (GLCERLVSL; listed as Homo sapiens) [compound 249]”: the Peptide exchange result with HLA-A*02 was “++++ (>=75% = ++++)”. Further, in the experiment with CD8+ T cells, the “Wells positive [%]” value is “+ (<20% = +)”.
In the case of “257 (GLYTDPCGV; listed as Homo sapiens) [compound 257]”, the Peptide exchange result with HLA-A*02 is reported as “++++ (>=75% = ++++)”.
Same read-out and setting: the same measure for “258 (LLSERFINV; listed as Homo sapiens) [compound 258]”: “++++ (>=75% = ++++)”.
